Test results as given in the supplement of paper PMC10065799, “High-throughput profiling of sequence recognition by tyrosine kinases and SH2 domains using bacterial peptide display” (eLife, 2023).

Each sequence was assayed against FGFR1 (UniProt P11362) (assay: phosphorylation enrichment, bacterial display (enrichment ratio); higher = better substrate or ligand; peptides without Tyr show the background).
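Wherever SH2 binding enrichment of the phosphorylated peptide, bacterial display is given: peptide library displayed on the E. coli surface as eCPX fusions, selected cells deep-sequenced, score is each peptide's frequency after selection divided by its frequency in the input.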
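Wherever phosphorylation enrichment, bacterial display is given: 11-residue human phosphosite peptides and single-mutation variants displayed on the E. coli surface, counted by deep sequencing, each peptide's frequency after selection divided by its frequency in the unselected input library; frequency after pTyr selection over input frequency; kinase dosed for 20-30% of maximal phosphorylation in three min.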

FGFR1, sequence (P11362 whole entry, looked up, the tested form may be a part): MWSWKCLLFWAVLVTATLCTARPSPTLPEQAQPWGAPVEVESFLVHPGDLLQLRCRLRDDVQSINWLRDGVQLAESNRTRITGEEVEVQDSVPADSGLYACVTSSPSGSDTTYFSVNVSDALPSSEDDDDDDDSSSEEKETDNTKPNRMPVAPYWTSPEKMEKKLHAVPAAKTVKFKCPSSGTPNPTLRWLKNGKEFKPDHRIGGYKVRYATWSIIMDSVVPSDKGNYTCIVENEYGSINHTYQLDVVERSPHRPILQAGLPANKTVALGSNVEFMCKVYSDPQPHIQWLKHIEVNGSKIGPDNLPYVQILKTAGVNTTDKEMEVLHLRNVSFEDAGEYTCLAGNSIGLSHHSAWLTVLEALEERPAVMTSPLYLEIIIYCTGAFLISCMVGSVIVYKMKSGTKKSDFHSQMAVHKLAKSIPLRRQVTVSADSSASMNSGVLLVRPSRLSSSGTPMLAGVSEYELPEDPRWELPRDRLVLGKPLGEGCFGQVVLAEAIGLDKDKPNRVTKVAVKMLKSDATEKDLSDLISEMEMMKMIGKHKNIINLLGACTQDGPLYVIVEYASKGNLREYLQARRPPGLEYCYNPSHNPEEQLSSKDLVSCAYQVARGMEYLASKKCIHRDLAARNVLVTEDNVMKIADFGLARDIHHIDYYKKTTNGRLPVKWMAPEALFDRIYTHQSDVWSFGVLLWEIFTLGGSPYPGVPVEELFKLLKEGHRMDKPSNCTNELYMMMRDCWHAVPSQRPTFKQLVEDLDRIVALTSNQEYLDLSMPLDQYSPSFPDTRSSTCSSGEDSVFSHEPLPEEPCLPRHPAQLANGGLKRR

In order of falling phosphorylation enrichment:
1. QRPYVYYYSYL [PTEN_Y176_R173P]  9.79
2. YLENYYDLKKD [MMP3_Y42]  9.43
3. GSTLSYFGLAA [P2RX7_Y343]  1.83
4. LGQRIYQYIRS [DYRK1B_Y271_Q275R]  1.54
5. RGRSTYFWPRP [GAGE12J_Y9_YF]  0.93
6. HLVSEYQQYQD [TUBB3_Y422_D417H]  0.868
7. IFGVSYDEYRY [CFTR_Y512]  0.688
8. YHIDHYLGKEM [G6PD_Y202_R198H]  0.673
9. AEEEIYGIFGA [SRCtide_2014]  0.615
10. LFQAKYQIRYR [CRLF1_Y272]  0.566
11. TRNRDYDDIDD [TTYH2_Y424]  0.562
12. KNNDGYIDFAE [MCFD2_Y135_YF]  0.556
13. SELVCYDARVH [MET_Y971_R970C]  0.547
14. FETVKYINNER [ABCB7_Y345_F346I_YF]  0.525
15. VCDSNYSASRW [LRP5_Y1552_D1551N]  0.509
16. ADKAAYLQSLN [MYH2_Y389]  0.506
17. GDDLSYGDVPP [IRS1_Y151_E147D]  0.479
18. FTGVEYSSCDT [EPHA3_Y937]  0.478
19. GYRPVYSEDEQ [CHST6_Y362]  0.471
20. YSKDNYKRVTG [PANK2_Y405]  0.456
21. FGLDHYQCDCT [PTGS1_Y54_R53H]  0.453
22. AVAFVYYKSIG [ADGRL4_Y301]  0.451
23. FIRRDYEACKA [BBS4_Y48_K46R_YF]  0.45
24. FSVDSYDSSVR [KCNQ1_Y461_G460S]  0.44
25. FFRRHYPLTTL [TNS4_Y644]  0.426
26. TTTQAYRVNER [PRKN_Y391_D394N]  0.421
27. VSGIPYGQPKQ [NEU1_Y251]  0.415
28. VRFTEYETQVK [TARDBP_Y155]  0.413
29. EKLQQYIAPGM [EPHB3_Y600]  0.389
30. PIPIKYKAMKK [MYD88_Y257_L252P]  0.383
31. RRIHSNRGHLW [VHL_Y112_Y112N]  0.357
32. RGFRVCFTPDS [PTPRF_Y450_Y450C_YF]  0.337
33. FSKRIYKGMVA [PCDH15_Y931]  0.262

Each sequence was assayed against SHP2-C SH2 (assay: SH2 binding enrichment of the phosphorylated peptide, bacterial display (enrichment ratio); higher = better substrate or ligand; peptides without Tyr show the background).

In order of falling SH2 binding enrichment:
1. LFQAKYQIRYR [CRLF1_Y272]  1.67
2. FGLDHYQCDCT [PTGS1_Y54_R53H]  1.59
3. LGQRIYQYIRS [DYRK1B_Y271_Q275R]  1.51
4. VSGIPYGQPKQ [NEU1_Y251]  1.22
5. QRPYVYYYSYL [PTEN_Y176_R173P]  1.14
6. FTGVEYSSCDT [EPHA3_Y937]  1.14
7. PIPIKYKAMKK [MYD88_Y257_L252P]  1.1
8. FIRRDYEACKA [BBS4_Y48_K46R_YF]  1.01
9. KNNDGYIDFAE [MCFD2_Y135_YF]  0.999
10. GSTLSYFGLAA [P2RX7_Y343]  0.962
11. IFGVSYDEYRY [CFTR_Y512]  0.896
12. FSVDSYDSSVR [KCNQ1_Y461_G460S]  0.865
13. YLENYYDLKKD [MMP3_Y42]  0.821
14. ADKAAYLQSLN [MYH2_Y389]  0.8
15. TRNRDYDDIDD [TTYH2_Y424]  0.766
16. AVAFVYYKSIG [ADGRL4_Y301]  0.758
17. VRFTEYETQVK [TARDBP_Y155]  0.754
18. SELVCYDARVH [MET_Y971_R970C]  0.739
19. EKLQQYIAPGM [EPHB3_Y600]  0.734
20. FETVKYINNER [ABCB7_Y345_F346I_YF]  0.713
21. RGRSTYFWPRP [GAGE12J_Y9_YF]  0.704
22. VCDSNYSASRW [LRP5_Y1552_D1551N]  0.7
23. GYRPVYSEDEQ [CHST6_Y362]  0.669
24. YHIDHYLGKEM [G6PD_Y202_R198H]  0.664
25. RGFRVCFTPDS [PTPRF_Y450_Y450C_YF]  0.615
26. HLVSEYQQYQD [TUBB3_Y422_D417H]  0.605
27. YSKDNYKRVTG [PANK2_Y405]  0.597
28. AEEEIYGIFGA [SRCtide_2014]  0.584
29. TTTQAYRVNER [PRKN_Y391_D394N]  0.576
30. RRIHSNRGHLW [VHL_Y112_Y112N]  0.568
31. FFRRHYPLTTL [TNS4_Y644]  0.566
32. FSKRIYKGMVA [PCDH15_Y931]  0.555
33. GDDLSYGDVPP [IRS1_Y151_E147D]  0.549

Each sequence was assayed against c-Src SH2 in the same assay as above.

In order of rising SH2 binding enrichment:
1. VSGIPYGQPKQ [NEU1_Y251]  0.331
2. RGFRVCFTPDS [PTPRF_Y450_Y450C_YF]  0.338
3. YSKDNYKRVTG [PANK2_Y405]  0.374
4. FFRRHYPLTTL [TNS4_Y644]  0.422
5. TTTQAYRVNER [PRKN_Y391_D394N]  0.438
6. FETVKYINNER [ABCB7_Y345_F346I_YF]  0.441
7. FSKRIYKGMVA [PCDH15_Y931]  0.462
8. EKLQQYIAPGM [EPHB3_Y600]  0.47
9. RRIHSNRGHLW [VHL_Y112_Y112N]  0.484
10. RGRSTYFWPRP [GAGE12J_Y9_YF]  0.489
11. AEEEIYGIFGA [SRCtide_2014]  0.494
12. ADKAAYLQSLN [MYH2_Y389]  0.553
13. SELVCYDARVH [MET_Y971_R970C]  0.561
14. YHIDHYLGKEM [G6PD_Y202_R198H]  0.573
15. GDDLSYGDVPP [IRS1_Y151_E147D]  0.573
16. VRFTEYETQVK [TARDBP_Y155]  0.583
17. TRNRDYDDIDD [TTYH2_Y424]  0.593
18. GSTLSYFGLAA [P2RX7_Y343]  0.646
19. VCDSNYSASRW [LRP5_Y1552_D1551N]  0.648
20. FIRRDYEACKA [BBS4_Y48_K46R_YF]  0.682
21. GYRPVYSEDEQ [CHST6_Y362]  0.692
22. FSVDSYDSSVR [KCNQ1_Y461_G460S]  0.718
23. QRPYVYYYSYL [PTEN_Y176_R173P]  0.734
24. AVAFVYYKSIG [ADGRL4_Y301]  0.76
25. PIPIKYKAMKK [MYD88_Y257_L252P]  0.822
26. YLENYYDLKKD [MMP3_Y42]  0.908
27. HLVSEYQQYQD [TUBB3_Y422_D417H]  1.02
28. FGLDHYQCDCT [PTGS1_Y54_R53H]  1.14
29. LFQAKYQIRYR [CRLF1_Y272]  1.22
30. IFGVSYDEYRY [CFTR_Y512]  1.36
31. FTGVEYSSCDT [EPHA3_Y937]  1.92
32. LGQRIYQYIRS [DYRK1B_Y271_Q275R]  3.25
33. KNNDGYIDFAE [MCFD2_Y135_YF]  14.3

What follows are sequences tested against Grb2 SH2 (UniProt P62993) in the same assay as above.
Grb2 SH2, sequence (P62993 whole entry, looked up): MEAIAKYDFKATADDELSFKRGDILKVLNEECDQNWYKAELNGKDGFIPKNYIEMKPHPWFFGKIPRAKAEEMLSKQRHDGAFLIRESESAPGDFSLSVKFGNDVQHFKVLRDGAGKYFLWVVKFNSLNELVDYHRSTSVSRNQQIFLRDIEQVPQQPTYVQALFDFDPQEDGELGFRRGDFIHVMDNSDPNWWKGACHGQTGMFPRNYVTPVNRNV

In order of rising SH2 binding enrichment:
1. RGRSTYFWPRP [GAGE12J_Y9_YF]  0.456
2. EKLQQYIAPGM [EPHB3_Y600]  0.696
3. KNNDGYIDFAE [MCFD2_Y135_YF]  0.707
4. TRNRDYDDIDD [TTYH2_Y424]  0.721
5. GDDLSYGDVPP [IRS1_Y151_E147D]  0.752
6. FSKRIYKGMVA [PCDH15_Y931]  0.773
7. AEEEIYGIFGA [SRCtide_2014]  0.775
8. IFGVSYDEYRY [CFTR_Y512]  0.776
9. YSKDNYKRVTG [PANK2_Y405]  0.793
10. RGFRVCFTPDS [PTPRF_Y450_Y450C_YF]  0.796
11. VRFTEYETQVK [TARDBP_Y155]  0.813
12. FTGVEYSSCDT [EPHA3_Y937]  0.832
13. TTTQAYRVNER [PRKN_Y391_D394N]  0.848
14. ADKAAYLQSLN [MYH2_Y389]  0.86
15. VCDSNYSASRW [LRP5_Y1552_D1551N]  0.872
16. SELVCYDARVH [MET_Y971_R970C]  0.874
17. YLENYYDLKKD [MMP3_Y42]  0.904
18. FIRRDYEACKA [BBS4_Y48_K46R_YF]  0.918
19. GYRPVYSEDEQ [CHST6_Y362]  0.921
20. RRIHSNRGHLW [VHL_Y112_Y112N]  0.923
21. VSGIPYGQPKQ [NEU1_Y251]  0.94
22. HLVSEYQQYQD [TUBB3_Y422_D417H]  0.956
23. AVAFVYYKSIG [ADGRL4_Y301]  1.02
24. FSVDSYDSSVR [KCNQ1_Y461_G460S]  1.02
25. YHIDHYLGKEM [G6PD_Y202_R198H]  1.09
26. FGLDHYQCDCT [PTGS1_Y54_R53H]  1.13
27. GSTLSYFGLAA [P2RX7_Y343]  1.14
28. LGQRIYQYIRS [DYRK1B_Y271_Q275R]  1.14
29. FFRRHYPLTTL [TNS4_Y644]  1.15
30. QRPYVYYYSYL [PTEN_Y176_R173P]  1.17
31. FETVKYINNER [ABCB7_Y345_F346I_YF]  1.23
32. PIPIKYKAMKK [MYD88_Y257_L252P]  1.32
33. LFQAKYQIRYR [CRLF1_Y272]  1.46
